The values below come from US20220332804A1 (CSL INNOVATION, published 2022).

As usually defined, the Kd is the free concentration of one partner at which half of the binding sites on the other are occupied at equilibrium, for simple one-to-one binding. Lower therefore signals a tighter complex.

Assay in all cases: SPR, mAb captured, C2 mutant analyte;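 note: Anti-C2 mAbs captured on goat anti-human IgG Biacore CM5 chips, alanine or serine C2 surface mutants flowed over at 37 °C, double-referenced sensorgrams fitted to a 1:1 binding model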
(SPR reads the build-up and loss of mass on a sensor chip optically.)

One experiment addresses T1, human C2 S473A (human, UniProt P06681 21-752).
T1 sequence: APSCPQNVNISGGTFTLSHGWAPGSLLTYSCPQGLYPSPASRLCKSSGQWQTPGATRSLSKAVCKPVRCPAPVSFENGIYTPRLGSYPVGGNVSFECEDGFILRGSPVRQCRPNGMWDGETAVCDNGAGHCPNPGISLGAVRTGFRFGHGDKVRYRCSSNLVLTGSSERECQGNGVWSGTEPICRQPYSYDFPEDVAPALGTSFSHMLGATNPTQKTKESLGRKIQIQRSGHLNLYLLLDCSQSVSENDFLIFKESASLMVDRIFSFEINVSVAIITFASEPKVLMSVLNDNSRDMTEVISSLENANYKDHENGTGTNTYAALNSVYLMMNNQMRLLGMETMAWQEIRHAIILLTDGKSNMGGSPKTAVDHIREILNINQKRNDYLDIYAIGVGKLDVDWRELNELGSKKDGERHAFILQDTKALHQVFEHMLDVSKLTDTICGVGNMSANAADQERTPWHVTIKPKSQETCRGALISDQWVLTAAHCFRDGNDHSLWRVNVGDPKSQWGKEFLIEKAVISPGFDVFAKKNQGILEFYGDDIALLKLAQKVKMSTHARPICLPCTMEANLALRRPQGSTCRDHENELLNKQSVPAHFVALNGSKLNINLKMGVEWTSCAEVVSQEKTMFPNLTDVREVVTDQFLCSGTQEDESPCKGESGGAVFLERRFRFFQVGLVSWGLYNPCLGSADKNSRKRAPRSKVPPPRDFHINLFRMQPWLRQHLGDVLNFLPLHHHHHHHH

A further experiment addresses T2, human C2 A444S (human, UniProt P06681 21-752).
T2 sequence: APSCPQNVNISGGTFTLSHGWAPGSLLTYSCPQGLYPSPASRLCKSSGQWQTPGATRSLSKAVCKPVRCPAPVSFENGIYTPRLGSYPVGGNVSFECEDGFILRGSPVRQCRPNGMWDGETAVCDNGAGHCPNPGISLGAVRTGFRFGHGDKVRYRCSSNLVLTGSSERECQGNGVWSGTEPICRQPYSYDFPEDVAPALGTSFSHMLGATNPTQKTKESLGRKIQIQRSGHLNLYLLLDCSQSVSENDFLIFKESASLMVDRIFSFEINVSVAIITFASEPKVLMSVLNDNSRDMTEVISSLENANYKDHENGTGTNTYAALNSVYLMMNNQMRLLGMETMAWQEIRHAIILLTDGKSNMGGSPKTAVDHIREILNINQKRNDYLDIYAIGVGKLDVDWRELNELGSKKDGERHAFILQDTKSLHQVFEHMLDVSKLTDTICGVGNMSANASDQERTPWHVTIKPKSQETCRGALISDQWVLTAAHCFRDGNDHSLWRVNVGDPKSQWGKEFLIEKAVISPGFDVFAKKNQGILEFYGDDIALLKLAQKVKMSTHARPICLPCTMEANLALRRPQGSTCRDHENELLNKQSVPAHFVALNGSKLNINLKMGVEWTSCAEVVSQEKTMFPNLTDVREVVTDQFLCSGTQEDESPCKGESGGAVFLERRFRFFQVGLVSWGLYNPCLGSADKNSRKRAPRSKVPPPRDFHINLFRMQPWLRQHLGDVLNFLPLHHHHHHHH

Another experiment has as its target T3, human C2 S428A (human, UniProt P06681 21-752).
T3 sequence: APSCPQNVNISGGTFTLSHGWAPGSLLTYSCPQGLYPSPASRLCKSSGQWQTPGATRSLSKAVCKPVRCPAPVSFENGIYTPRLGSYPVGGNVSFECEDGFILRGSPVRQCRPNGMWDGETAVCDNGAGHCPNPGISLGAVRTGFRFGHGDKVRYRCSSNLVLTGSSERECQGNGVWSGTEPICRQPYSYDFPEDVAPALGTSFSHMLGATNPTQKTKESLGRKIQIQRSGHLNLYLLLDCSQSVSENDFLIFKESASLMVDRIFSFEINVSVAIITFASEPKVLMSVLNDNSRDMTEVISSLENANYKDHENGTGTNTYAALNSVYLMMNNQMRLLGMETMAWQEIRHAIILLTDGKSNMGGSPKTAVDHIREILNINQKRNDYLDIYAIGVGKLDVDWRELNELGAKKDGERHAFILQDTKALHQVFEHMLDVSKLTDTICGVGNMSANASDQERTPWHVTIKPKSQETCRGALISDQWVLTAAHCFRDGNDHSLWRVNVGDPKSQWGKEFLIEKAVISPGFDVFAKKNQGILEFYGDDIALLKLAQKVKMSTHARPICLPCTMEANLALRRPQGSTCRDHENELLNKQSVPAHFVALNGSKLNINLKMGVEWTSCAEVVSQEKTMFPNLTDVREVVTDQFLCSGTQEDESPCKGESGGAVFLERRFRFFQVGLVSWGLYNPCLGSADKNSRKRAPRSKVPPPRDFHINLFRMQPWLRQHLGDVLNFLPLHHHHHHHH

The target in a further experiment is T4, human C2 A472S (human, UniProt P06681 21-752).
T4 sequence: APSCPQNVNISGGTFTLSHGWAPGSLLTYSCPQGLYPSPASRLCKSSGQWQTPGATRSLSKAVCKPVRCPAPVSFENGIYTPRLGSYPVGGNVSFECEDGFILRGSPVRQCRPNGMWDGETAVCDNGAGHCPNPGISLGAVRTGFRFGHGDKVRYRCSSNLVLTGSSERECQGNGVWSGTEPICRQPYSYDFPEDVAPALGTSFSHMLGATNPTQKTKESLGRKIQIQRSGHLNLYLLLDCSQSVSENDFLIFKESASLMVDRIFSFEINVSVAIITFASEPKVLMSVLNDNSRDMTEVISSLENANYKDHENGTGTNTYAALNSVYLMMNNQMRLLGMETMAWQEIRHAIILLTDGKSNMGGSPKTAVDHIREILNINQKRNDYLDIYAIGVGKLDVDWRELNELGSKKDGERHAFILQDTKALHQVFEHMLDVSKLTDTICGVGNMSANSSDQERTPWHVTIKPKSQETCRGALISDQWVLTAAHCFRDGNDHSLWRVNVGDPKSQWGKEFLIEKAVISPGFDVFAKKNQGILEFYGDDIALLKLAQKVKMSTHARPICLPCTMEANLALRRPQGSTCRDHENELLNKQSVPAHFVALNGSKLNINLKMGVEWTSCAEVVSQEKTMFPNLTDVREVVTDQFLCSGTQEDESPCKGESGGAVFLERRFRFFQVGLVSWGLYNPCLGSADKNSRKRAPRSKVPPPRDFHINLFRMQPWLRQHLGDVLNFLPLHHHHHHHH

B1: RF16-214 (antibody, V domains shown)
VH: EVQLLESGGGLVQPGGSLRLSCAASGFTFSWYQMMWVRQAPGKGLEWVSRIYPSGGGTAYADSVKGRFTISRDNSKNTLYLQMNSLRAEDTAVYYCARDAGYGDNWGQGTLVTVSS
VL: QSALTQPPSVSVSPGQTASITCSGDKLGEKYASWYQQKAGQSPVMVIYQDRKRPSGIPERFSGSNSGNTATLTISGTQAMDEADYYCQAWDTRAVVFGGGTKLTVLG
In the case of B1, the Kd with human C2 S473A was 68.7 nM; with human C2 A444S, 20.7 nM; in the experiment with human C2 S428A it was 58.6 nM; in the experiment with human C2 A472S, 234 nM.
